Positions count from the first letter of the chain named. Entries after “also recorded” stand apart in the source; their conditions may differ. Peptide text beside a SMILES is read from it.
Tests used:
human MrgX2 = target: T1, human MrgX2 (Homo sapiens, UniProt Q96LB1); test: Fluo8 assay, intracellular Calcium release in CHEM1-MrgX2 cells; type: cell-based
T1 construct: The used cell line is overexpressing MrgX2 in CHEM1 by recombinant expression; host or cells: CHEM1 (adherent rat cell line)
T1 sequence (Q96LB1 1-330): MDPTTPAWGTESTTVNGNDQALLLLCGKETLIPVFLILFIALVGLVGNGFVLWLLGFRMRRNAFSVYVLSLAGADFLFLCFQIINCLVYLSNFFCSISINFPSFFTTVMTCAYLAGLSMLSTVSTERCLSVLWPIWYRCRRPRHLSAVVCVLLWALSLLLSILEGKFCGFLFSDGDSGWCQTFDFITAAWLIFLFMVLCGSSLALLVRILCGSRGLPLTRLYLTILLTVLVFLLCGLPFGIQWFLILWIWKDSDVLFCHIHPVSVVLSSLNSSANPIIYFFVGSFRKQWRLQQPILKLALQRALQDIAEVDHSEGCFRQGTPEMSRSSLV
Method: (§1) The Fluo8 assay is a cell based assay format for the determination of intracellular Calcium release. Cell were seeded on microtiter plates and incubated under standard cell culture conditions. After 24 h the medium was removed and the cells were washed with PBS. The cells were incubated with loading buffer (40 ml PBS with 2 mM Calcium +800 μl brilliant black (2%) +732 μl pobenecid (0.5 M) in 1N NaOH +400 μl Pluronic (10%) in water +152 μl Fluo8 (5.7 μg/ml) in water) for 30 minutes.

CHEM1 cells = test: Fluo8 assay, Calcium release in CHEM1 (control) cells without MrgX2 overexpression; type: cell-based, rat; conditions: control cell line, same experimental conditions, result in words
Method: as §1, with “minutes. For fluorescence readout and compound testing a FLIPR tetra system was used according to the manufactures protocol (Molecular Devices, Calif. 94089-1136, USA).” for “minutes.”
The used cell lines CHEM1 and CHEM1-MrgX2 are adherent rat cell lines (Millipore, Billerica, Mass. 01821, USA) with were cultures under standard cell culture conditions.

human MrgX2 (human) = human MrgX2 (human) (UniProt Q96LB1); test: cell-based or functional assay
CXCR4 = target: T2, CXCR4 (Homo sapiens, UniProt P61073); test: CXCR4 activity assay (CRE-luciferase reporter); type: cell-based; conditions: result in words
T2 construct: expressed in transfected cells
T2 sequence (P61073 whole entry, species assumed): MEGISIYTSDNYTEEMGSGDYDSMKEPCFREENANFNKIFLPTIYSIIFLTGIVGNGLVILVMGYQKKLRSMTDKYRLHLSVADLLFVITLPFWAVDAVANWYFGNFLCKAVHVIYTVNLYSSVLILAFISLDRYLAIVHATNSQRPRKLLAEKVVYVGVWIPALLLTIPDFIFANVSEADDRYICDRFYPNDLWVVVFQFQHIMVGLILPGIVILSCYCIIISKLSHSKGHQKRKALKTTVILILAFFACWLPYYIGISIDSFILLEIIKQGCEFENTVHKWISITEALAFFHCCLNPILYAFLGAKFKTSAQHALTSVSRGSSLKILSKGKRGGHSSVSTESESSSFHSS
Text: The CXCR4 receptor is a chemokine receptor and belongs to the family of G protein coupled receptors (GPCRs). Its only known endogenous ligand is stromal cell-derived factor 1 (SDF-1a). CXCR4 is a Gi coupled receptor. Its activation leads to a decrease of intracellular cAMP, which could be monitored by recombinant cAMP-responsive element (CRE) regulated luciferase expression. For the characterization of modulators of CXCR4 activity, stable cell lines expressing recombinant CXCR4 and a CRE-luciferase reporter vector were established. The cells were incubated with forskolin at a concentration of 0.5 μM, SDF-1a (at 20 nM) and test compounds and incubated for 4 h under standard cell culture conditions. Luciferase substrate was added and the luminescence was measured for 60 seconds.

## CC(C)C[C@H](NC(=O)[C@H](C)NC(=O)[C@H](Cc1c[nH]c2ccccc12)NC(=O)[C@H](CCCCN)NC(=O)[C@H](CC(N)=O)NC(=O)[C@H](Cc1c[nH]c2ccccc12)NC(=O)[C@H](CCCCN)NC(=O)[C@H](CCCCN)NC(=O)[C@H](CCCNC(=N)N)NC(=O)[C@H](Cc1ccccc1)NC(=O)[C@H](CCC(=O)O)NC(=O)[C@H](CO)NC(=O)[C@H](C)NC(=O)[C@@H](NC(=O)[C@H](CC(=O)O)NC(=O)[C@H](CC(C)C)NC(=O)[C@H](CCCNC(=N)N)NC(=O)[C@H](C)N)C(C)C)C(=O)N[C@@H](CO)C(=O)N[C@@H](CCCNC(=N)N)C(N)=O [PAMP, reference compound] (H-ARLDVASEFRKKWNKWALSR-NH2)
Human MrgX2; Fluo8 assay, result in words
  Calcium release / activity on MrgX2 (CHEM1-MrgX2): dose dependent Calcium release
CHEM1 cells
  Calcium release on CHEM1 without MrgX2: not in CHEM1

## NPY: peptide analyzed to characterize the specificity of CXCL14 to MrgX2 activation [reference compound]
Human MrgX2; Fluo8 assay, result in words
  Calcium release / activity on MrgX2 (CHEM1-MrgX2): Neither NPY or angiotension II nor galanin show a dose dependent Calcium release
CHEM1 cells
  Calcium release on CHEM1 without MrgX2: Neither NPY or angiotension II nor galanin show a dose dependent Calcium release

## PAMP (from UniProt P35318 22-185) (peptide)
Human MrgX2 (human)
  EC50 of calcium release (Fluo8 assay) on CHEM1-MrgX2 cells: 490 nM

## angiotensin II (DRVYIHPF) [reference compound]
Human MrgX2; Fluo8 assay, result in words
  Calcium release / activity on MrgX2 (CHEM1-MrgX2): Neither NPY or angiotension II nor galanin show a dose dependent Calcium release
CHEM1 cells
  Calcium release on CHEM1 without MrgX2: Neither NPY or angiotension II nor galanin show a dose dependent Calcium release

## human CXCL14 (from UniProt O95715 35-111) (ligand)
Human MrgX2 (human)
  EC50 of intracellular calcium release (Fluo8 assay) on CHEM1-MrgX2 cells: 570 nM

B1: Chemokine (C-X-C motif) ligand 14 (protein, listed as Homo sapiens)
chain: SKCKCSRKGPKIRYSDVKKLEMKPKYPHCEEKMVIITTKSVSRYRGQEHCLHPKLQSTKRFIKWYNAWNEKRRVYEE
notes: small cytokine belonging to the CXC chemokine family
Human MrgX2; Calcium release, Fluo8 assay, CHEM1 overexpressing MrgX2
  EC50: 570 nM
Human MrgX2; Fluo8 assay, result in words
  Calcium release / activity on MrgX2 (CHEM1-MrgX2): activated by CXCL14 in a dose dependent matter; also recorded: specific agonist
CHEM1 cells
  Calcium release on CHEM1 without MrgX2: no significant calcium release
CXCR4
  activity on G-protein coupled receptor CXCR4: antagonist

B2: Mouse CXCL14: mouse CXCL14, amino acid sequence in FIG. 19; differs from human by two amino acid residues (protein)
chain: B1 chain with I36V, V41M
Human MrgX2; Calcium release, result in words
  EC50 on CHEM1-MrgX2 compared with human CXCL14: comparable EC50
Human MrgX2; Fluo8 assay, result in words
  Calcium release / activity on MrgX2 (CHEM1-MrgX2): dose dependent Calcium release
CHEM1 cells
  Calcium release on CHEM1 without MrgX2: not on CHEM1 without MrgX2
